Data on one molecule can be found in PMC3383883 (ACS Nano, 2012).

For the test, the target named is bovine serum albumin (Bos taurus, UniProt P02769). Put plainly: carbon nanotube field-effect transistor.
bovine serum albumin, sequence (P02769 25-607): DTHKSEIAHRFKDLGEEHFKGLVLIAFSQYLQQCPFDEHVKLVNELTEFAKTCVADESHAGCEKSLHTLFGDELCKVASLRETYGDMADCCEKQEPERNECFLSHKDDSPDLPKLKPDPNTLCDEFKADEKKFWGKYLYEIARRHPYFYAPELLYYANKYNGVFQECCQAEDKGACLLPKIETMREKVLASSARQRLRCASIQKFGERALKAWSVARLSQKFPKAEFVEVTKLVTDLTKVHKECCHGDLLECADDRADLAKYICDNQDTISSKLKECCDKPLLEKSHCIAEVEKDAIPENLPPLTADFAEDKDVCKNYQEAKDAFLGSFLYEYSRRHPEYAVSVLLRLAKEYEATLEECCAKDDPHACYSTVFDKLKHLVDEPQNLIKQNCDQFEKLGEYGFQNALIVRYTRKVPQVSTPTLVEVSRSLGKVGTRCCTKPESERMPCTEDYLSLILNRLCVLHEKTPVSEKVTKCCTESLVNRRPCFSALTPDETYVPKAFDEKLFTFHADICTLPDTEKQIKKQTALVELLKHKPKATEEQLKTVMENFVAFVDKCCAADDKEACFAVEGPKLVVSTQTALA

B1: anti-OPN 23C3 scFv (scFv, V domains shown)
VH: EVQLVESGGGLVQPKGSLKISCAASGFTFNIYAMNWVRQAPGKGLEWVARIRSQSNNYTTYYADSVKDRFTISRDDSQSMLYLQMNNLKTEDTAMYYCVRQMGDYWGQGTTLTVSS
VL: YIQMTQSPASLSVSVGETVTITCRASENIYSFLAWYQQKQGKSPQLLVYAATNLADGVPSRFSGSGSGTQFSLKINSLQSEDFGTYYCQHFWGTPFTFGSGTKLEIK
As for B1, the binding result is “no binding (tested: 450 ng/mL)”.
